Experimental data as given in the supplement of paper PMC12042874.
± gives the uncertainty stated by the source.

Assay: amyloid nucleation score (Sup35N fusion, yeast selection) (log enrichment); library NNK1; higher = more nucleation; inactive = no reads after selection
Procedure, shortened: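 In psi-negative yeast, Sup35N fusions carrying peptides of 20 random codons were induced with 100 μM copper sulfate for 24 hours. The cells then grew 7 days at 30°C on medium lacking adenine and uracil, and plasmid inserts from input and output were Illumina-sequenced, excluding sequences with under 100 input reads. Nucleation score is the DiMSum log enrichment of output over input reads, centred on the mode score of non-aggregating sequences.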

| Substance | amyloid nucleation score |
| --- | --- |
| VHTMSLWCDISQLIVPVNRV | 1.1 ± 0.52 |
| GTMVSLKTGFKDTSRLLNWS | -0.748 ± 0.41 |
| RGRDHCYTTDWNGYRVMVPL | 0.58 ± 0.51 |
| SFKGYVSWVGSPHRAVG | 0.425 ± 0.86 |
| CSIVYCMCGLCAS | 8.43 ± 0.055 |
| SFCLFNVIYQFIGKRCPNSG | 3.82 ± 0.1 |
| SWPLWEVMPRWGARDRGWVG | 0.553 ± 0.93 |
| RLGCGSM | 0.769 ± 0.45 |
| YLVVPERLVANRMVS | -1.68 ± 2.4 |
| WIWVYQTNKIKEMFMRRVWL | inactive |
| FNTCMSLFSNCFPNCWMHFK | 0.428 ± 0.61 |
| SSFLASGL | -0.529 ± 1.3 |
| TGKAVTSGWKNIVSSITSQR | -0.434 ± 0.58 |
| YNVGLLGLFRCYAQKVGLWE | inactive |
| LLGYLAMCS | 1.01 ± 0.23 |
| FDSRENETTCAMSEDMTYVV | -0.238 ± 0.22 |
| MFGFHRNRDDHSCIHFTFK | 2.58 ± 0.15 |
| SHPFTFSCAHILLWMSLRRF | 0.276 ± 0.45 |
| GKLTYLPRVKNLHLHFSFEN | -0.169 ± 0.51 |
| ICYTLTMVMAGVEAGGATLV | 0.294 ± 0.95 |
| PLLVYIFNFHCYHLVNAMTV | 2.2 ± 0.32 |
| NEHAENDVTFQGNEDICVVM | -0.419 ± 0.34 |

| Substance | amyloid nucleation score |
| --- | --- |
| LLPGLIEWSVGLMCLIL | 0.023 ± 0.9 |
| LLTSIPRRVIARVSEGFCCN | -0.311 ± 0.71 |
| TESPRCRVPGVELPD | -0.136 ± 0.67 |
| VSQVVCGMSYFGDCAIRQES | 0.153 ± 0.5 |
| GWVGLLH | 0.457 ± 0.31 |
| YVFRPLVERDRSLMKLVQQL | inactive |
| IRDMFVSGSQFFLKHMLSRG | 0.436 ± 0.78 |
| ELAAMCSWAYSN | 0.097 ± 0.41 |
| SFSFKCDYYVPCRRYIFVIL | -1.3 ± 1.1 |
| FRRVVNVSCTLTHSWIILLM | 0.042 ± 1.1 |
| CSGNI | -1.32 ± 1.7 |
| GMTCSQGSEWMLERGNRTEV | -0.294 ± 0.66 |
| CDNQVSGLNGS | inactive |
| RACGYYCKSLCPGCKTCLSR | 0.005 ± 1.7 |
| RAIIGFSLSQRGYLPNTDLR | 3.1 ± 0.095 |
| VIGLSQWVNSLSYRFEMQNL | 4.72 ± 0.094 |
| GTNCHL | -0.036 ± 0.79 |
| FVDFMQRNWGLVRVPCHVSL | inactive |
| FYTLKFMVKALTVKKGVCVV | inactive |
| SFSLSLVFRISPDGLGHFLQ | 0.412 ± 0.3 |
| LAISL | -0.444 ± 0.36 |
| GTCYFTDQR | 0.491 ± 0.37 |

| Substance | amyloid nucleation score |
| --- | --- |
| GVMQFENIYGFVALMRRLMF | 0.668 ± 0.62 |
| LILSYAN | 1.33 ± 0.66 |
| KYRASYRNHRDMGDSAVYGY | 0.044 ± 0.26 |
| TSINWFRTVLYGVSLNYFWV | 0.345 ± 0.6 |
| FQIRSRISIDCVMVNRDELS | 1.41 ± 0.18 |
| FAPMILRPVLSQMAWWKDIA | -0.108 ± 0.52 |
| VYSRPL | 0.098 ± 0.57 |
| LNRFLYDSCLFSCYFGYMVA | -0.017 ± 0.25 |
| NMTSYSIYGELE | -0.341 ± 0.21 |
| CGYSKVPMPCALAECGGRPR | 0.054 ± 0.45 |
| KHDRHAKTTSLYRKPGKLRR | 0.4 ± 1.1 |
| AIGCVWVRNRVAIVGERVAK | 2.08 ± 0.23 |
| RRRHWVSSAGGKRRHLVFCA | 1.22 ± 0.46 |
| KELIKCYLNM | 0.463 ± 0.5 |
| DSQVL | 1.25 ± 0.56 |
| ITMFNLYQCSL | 5.78 ± 0.065 |
| SFHLSQFYKNTHMWLIVFES | inactive |
| PAVIILVIKMHGGIKGKDGR | -0.755 ± 0.44 |
| IYPKLDCYVAVVLLDLSGVT | inactive |
| VERFDLHLSD | 1.06 ± 0.6 |
| YIWRNKKSAIRCDSKTVRRN | -0.286 ± 0.35 |
| RIFFYTISYPLILIKVFCYL | inactive |

| Substance | amyloid nucleation score |
| --- | --- |
| VPLGSDSNHNANVTCYFASA | -0.078 ± 0.37 |
| HYSFFE | -0.806 ± 0.8 |
| IQQTLPQRYMYNEIRPCSSL | 0.502 ± 0.19 |
| YEGYGPCWRKLYS | 0.15 ± 0.36 |
| SVDLFSCRRIRLTLLEVFVT | -0.028 ± 0.41 |
| HWTPC | inactive |
| QHCARTAGVSVARVVVSNCG | 0.161 ± 0.41 |
| DLPLTYMCSN | 0.359 ± 0.7 |
| LGFAW | 0.003 ± 0.45 |
| INFVLMIRMIVSFMNIGRIG | -0.527 ± 1.6 |
| SLRDACFGVNI | -0.091 ± 0.29 |
| LTRAWSGWYVTFMGGEILIR | -0.118 ± 0.49 |
| IGVYSKNAQKGIRRDWCLWN | 1.33 ± 0.62 |
| RGITNCVQCPVIPWFLRYYG | -0.401 ± 0.31 |
| VKVIVIHAAC | -0.256 ± 0.31 |
| GWNRTTSHWIRVFYCAVLVC | -0.346 ± 0.53 |
| FMALLQLAGVIWVSLTVLTP | 0.08 ± 0.62 |
| TRLHRSQYSLSQSYNRTRKM | 0.39 ± 1.2 |
| FEQTIISLVSGYFQSSDYWS | -0.596 ± 0.78 |
| TLSSRSYC | 0.402 ± 0.33 |
